The results in this text go back to US20180355043A1.

Common to all, as to assay: MSD ECL; antigen coated; protocol of Example 3
Experiment [1] addresses DR4G103: Human HLA-DRA1*01:02/DRB1*15:01 ECD with hemagglutinin peptide HA_304-318 (human).
Experiment [2] concerns the target DR4G104: Human HLA-DRA1*01:02/DRB1*04:02 ECD with hemagglutinin peptide HA_304-318 (human).
Experiment [3] has as its target DR4G119: Human HLA-DRA1*01:02/DRB1*10:01 ECD with hemagglutinin peptide HA_304-318 (human).

Isotype control (antibody): the ECL signal in experiment [1] was found to be 487 ECL; in experiment [2], 1130 ECL; in experiment [3], 517 ECL.
